Measurements taken from patent US20170224836A1 (Novartis, published 2017).
Like-named read-outs stand apart in the source and are kept apart here. Blank lines part the entries; values can stand above or below the molecule they belong to.

Columns and labels:
human CDH6 on cells [1] = target: T1, human CDH6 on cells (human, UniProt P55285 54-790); assay: FACS on OVCAR3 cells, histogram table
T1 sequence: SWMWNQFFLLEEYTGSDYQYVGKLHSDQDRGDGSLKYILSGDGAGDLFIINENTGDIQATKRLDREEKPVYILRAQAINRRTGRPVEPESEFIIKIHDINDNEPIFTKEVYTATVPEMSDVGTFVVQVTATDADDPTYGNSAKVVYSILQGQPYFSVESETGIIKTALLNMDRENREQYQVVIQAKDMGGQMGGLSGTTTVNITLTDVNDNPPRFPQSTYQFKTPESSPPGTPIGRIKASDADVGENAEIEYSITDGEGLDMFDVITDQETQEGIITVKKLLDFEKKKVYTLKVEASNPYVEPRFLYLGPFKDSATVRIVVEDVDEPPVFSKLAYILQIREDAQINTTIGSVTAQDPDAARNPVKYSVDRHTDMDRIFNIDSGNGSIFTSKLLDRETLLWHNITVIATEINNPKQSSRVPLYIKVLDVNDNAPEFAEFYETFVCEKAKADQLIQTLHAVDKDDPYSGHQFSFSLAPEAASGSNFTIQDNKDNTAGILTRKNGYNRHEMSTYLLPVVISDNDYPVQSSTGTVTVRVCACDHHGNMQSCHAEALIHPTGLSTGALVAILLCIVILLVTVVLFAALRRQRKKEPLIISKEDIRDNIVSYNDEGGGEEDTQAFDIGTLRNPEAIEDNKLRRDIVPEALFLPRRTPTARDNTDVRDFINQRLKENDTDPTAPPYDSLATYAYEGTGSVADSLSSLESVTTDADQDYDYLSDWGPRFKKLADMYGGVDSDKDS

human CDH6 on cells [2] = target: T1, human CDH6 on cells; assay: FACS on OVCAR8-CDH6+ cells, histogram table
hCDH6aa54-615 APPavi [3] = target: T2, hCDH6aa54-615 APPavi (human, UniProt P55285 54-615); assay: SPR binning
T2 sequence: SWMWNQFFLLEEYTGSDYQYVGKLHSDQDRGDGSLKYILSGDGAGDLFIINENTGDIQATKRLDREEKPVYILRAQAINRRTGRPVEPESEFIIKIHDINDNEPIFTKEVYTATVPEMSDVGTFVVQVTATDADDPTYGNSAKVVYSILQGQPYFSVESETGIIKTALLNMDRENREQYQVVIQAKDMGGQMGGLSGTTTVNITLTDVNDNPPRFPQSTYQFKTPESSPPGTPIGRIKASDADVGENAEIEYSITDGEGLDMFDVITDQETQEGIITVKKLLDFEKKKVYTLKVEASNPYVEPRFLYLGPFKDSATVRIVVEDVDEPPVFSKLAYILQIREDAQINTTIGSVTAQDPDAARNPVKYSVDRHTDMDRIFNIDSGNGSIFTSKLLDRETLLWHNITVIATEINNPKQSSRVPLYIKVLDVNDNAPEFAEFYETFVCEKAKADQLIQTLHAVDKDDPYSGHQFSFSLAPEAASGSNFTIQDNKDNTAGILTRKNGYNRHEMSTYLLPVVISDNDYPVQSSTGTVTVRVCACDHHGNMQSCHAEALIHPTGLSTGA

hCDH6aa54-615 APPavi [4] = target: T2, hCDH6aa54-615 APPavi; assay: SPR binning; remark: listed apart in the source
hCDH6aa54-615 APPavi [5] = target: T2, hCDH6aa54-615 APPavi; assay: SPR binning; remark: listed apart in the source
hCDH6aa54-615 APPavi [6] = target: T2, hCDH6aa54-615 APPavi; assay: SPR binning; remark: listed apart in the source
hCDH6aa54-615 APPavi [7] = target: T2, hCDH6aa54-615 APPavi; assay: SPR binning; remark: listed apart in the source
hCDH6aa54-615 APPavi [8] = target: T2, hCDH6aa54-615 APPavi; assay: SPR binning; remark: listed apart in the source
hCDH6aa54-615 APPavi [9] = target: T2, hCDH6aa54-615 APPavi; assay: SPR binning; remark: listed apart in the source

B2: NOV1126 (antibody, human IgG1, lambda, V domains shown)
VH: EVQLLESGGGLVQPGGSLRLSCAASGFTFSDHAIDWVRQAPGKGLEWVSVIAGSGSITYYADSVKGRFTISRDNSKNTLYLQMNSLRAEDTAVYYCARDTGVYREYMDVWGQGTLVTVSS
VL: SYELTQPLSVSVALGQTARITCSGDAIGTKFAHWYQQKPGQAPVLVIYYDHERPSGIPERFSGSNSGNTATLTISRAQAGDEADYYCYSRASSNLVFGGGTKLTVLG
response of secondary antibody on primary antibody-CDH6 complex (hCDH6aa54-615 APPavi [3]): 18.7
response of secondary antibody on primary antibody-CDH6 complex (hCDH6aa54-615 APPavi [4]): 36.9
response of secondary antibody on primary antibody-CDH6 complex (hCDH6aa54-615 APPavi [5]): 26.7
response of secondary antibody on primary antibody-CDH6 complex (hCDH6aa54-615 APPavi [6]): 61.6
response of secondary antibody on primary antibody-CDH6 complex (hCDH6aa54-615 APPavi [7]): 8.59
response of secondary antibody on primary antibody-CDH6 complex (hCDH6aa54-615 APPavi [8]): 56.6
response of secondary antibody on primary antibody-CDH6 complex (hCDH6aa54-615 APPavi [9]): 30.1

B3: NOV1127 (antibody, human IgG1, kappa, V domains shown)
VH: QVQLQQSGPGLVKPSQTLSLTCAISGDSVSSQSAAWNWIRQSPSRGLEWLGRIYYRSKWYNDYAVSVKSRITINPDTSKNQFSLQLNSVTPEDTAVYYCARERSYRDYFDYWGQGTLVTVSS
VL: DIQMTQSPSSLSASVGDRVTITCRASQGIFTYLNWYQQKPGKAPKLLIYAASTLQSGVPSRFSGSGSGTDFTLTISSLQPEDFATYYCQQYYSTSLTFGQGTKVEIKR
response of secondary antibody on primary antibody-CDH6 complex (hCDH6aa54-615 APPavi [3]): 25.4
response of secondary antibody on primary antibody-CDH6 complex (hCDH6aa54-615 APPavi [4]): 30.9
response of secondary antibody on primary antibody-CDH6 complex (hCDH6aa54-615 APPavi [5]): 22.4
response of secondary antibody on primary antibody-CDH6 complex (hCDH6aa54-615 APPavi [6]): 51.5
response of secondary antibody on primary antibody-CDH6 complex (hCDH6aa54-615 APPavi [7]): 16.5
response of secondary antibody on primary antibody-CDH6 complex (hCDH6aa54-615 APPavi [8]): 36.7
response of secondary antibody on primary antibody-CDH6 complex (hCDH6aa54-615 APPavi [9]): 17.8

B4: NOV0719 (antibody, human IgG1, kappa, V domains shown)
VH: QVQLLESGGGLVQPGGSLRLSCAASGFTFSSHWVHWVRQAPGKGLEWVSVISYMGSSTYYADSVKGRFTISRDNSKNTLYLQMNSLRAEDTAVYYCARGSYDMAFDVWGQGTLVTVSS
VL: DIQMTQSPSSLSASVGDRVTITCRASQSIVSYLNWYQQKPGKAPKLLIYDASSLQSGVPSRFSGSGSGTDFTLTISSLQPEDFATYYCQQSGSHSITFGQGTKVEIKR
response of secondary antibody on primary antibody-CDH6 complex (hCDH6aa54-615 APPavi [3]): 13.5
response of secondary antibody on primary antibody-CDH6 complex (hCDH6aa54-615 APPavi [4]): 16.1
response of secondary antibody on primary antibody-CDH6 complex (hCDH6aa54-615 APPavi [5]): 11.1
response of secondary antibody on primary antibody-CDH6 complex (hCDH6aa54-615 APPavi [6]): -2.36
response of secondary antibody on primary antibody-CDH6 complex (hCDH6aa54-615 APPavi [7]): 25.4
response of secondary antibody on primary antibody-CDH6 complex (hCDH6aa54-615 APPavi [8]): 46.9
response of secondary antibody on primary antibody-CDH6 complex (hCDH6aa54-615 APPavi [9]): 20.7

Continued, values first:

Geom. Mean Fluorescence (human CDH6 on cells [1]): 60.4
Geom. Mean Fluorescence (human CDH6 on cells [2]): 56.5
Molecule: control IgG-sulfo-SPDB-DM4 (antibody)

response of secondary antibody on primary antibody-CDH6 complex (hCDH6aa54-615 APPavi [3]): 17.9
response of secondary antibody on primary antibody-CDH6 complex (hCDH6aa54-615 APPavi [4]): 17.8
response of secondary antibody on primary antibody-CDH6 complex (hCDH6aa54-615 APPavi [5]): 14.3
response of secondary antibody on primary antibody-CDH6 complex (hCDH6aa54-615 APPavi [6]): 33.6
response of secondary antibody on primary antibody-CDH6 complex (hCDH6aa54-615 APPavi [7]): 23.7
response of secondary antibody on primary antibody-CDH6 complex (hCDH6aa54-615 APPavi [8]): 39.3
response of secondary antibody on primary antibody-CDH6 complex (hCDH6aa54-615 APPavi [9]): 1.08
B1: NOV1132 (antibody, human IgG1, lambda, V domains shown)
VH: QVQLQQSGPGLVKPSQTLSLTCAISGDSVSSQSAGWNWIRQSPSRGLEWLGRIYYRSKWYNDYAVSVKSRITINPDTSKNQFSLQLNSVTPEDTAVYYCAREKYTVSFYDFFDYWGQGTLVTVSS
VL: SYELTQPLSVSVALGQTARITCSGDNIGSMTAHWYQQKPGQAPVLVIYDKNERPSGIPERFSGSNSGNTATLTISRAQAGDEADYYCQSWDDSYTSVVFGGGTKLTVLG
